Data: patent US20220332804A1 (CSL INNOVATION, published 2022)
Numbering of substitutions follows the chain as printed. Names and notes keep the numbering of the source.

Assays:
[1] = target: T1, human complement C2 (human, UniProt P06681 21-752); test: cell-based or functional assay
T1 sequence: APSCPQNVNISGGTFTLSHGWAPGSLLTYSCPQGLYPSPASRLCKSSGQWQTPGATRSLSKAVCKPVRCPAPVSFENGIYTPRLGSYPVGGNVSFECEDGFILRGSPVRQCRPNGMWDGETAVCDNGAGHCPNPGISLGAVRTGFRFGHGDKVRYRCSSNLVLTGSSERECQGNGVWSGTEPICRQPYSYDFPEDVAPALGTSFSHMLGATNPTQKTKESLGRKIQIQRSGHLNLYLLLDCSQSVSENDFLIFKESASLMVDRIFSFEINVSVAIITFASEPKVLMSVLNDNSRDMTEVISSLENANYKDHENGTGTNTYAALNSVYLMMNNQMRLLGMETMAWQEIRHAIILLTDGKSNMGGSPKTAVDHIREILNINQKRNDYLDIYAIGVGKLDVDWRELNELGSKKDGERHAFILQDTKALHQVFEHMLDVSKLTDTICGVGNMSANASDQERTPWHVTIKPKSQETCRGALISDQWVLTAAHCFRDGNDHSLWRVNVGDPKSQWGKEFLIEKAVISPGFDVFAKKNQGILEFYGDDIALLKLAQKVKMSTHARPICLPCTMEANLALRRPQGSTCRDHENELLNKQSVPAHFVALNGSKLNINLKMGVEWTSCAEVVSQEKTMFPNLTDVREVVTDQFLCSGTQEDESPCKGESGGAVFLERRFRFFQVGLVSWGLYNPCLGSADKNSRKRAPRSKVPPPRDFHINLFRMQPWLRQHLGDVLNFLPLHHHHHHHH

[2] = target: T2, cynomolgus monkey C2 (cynomolgus monkey, UniProt G8F3W0 21-752); test: cell-based or functional assay
T2 sequence: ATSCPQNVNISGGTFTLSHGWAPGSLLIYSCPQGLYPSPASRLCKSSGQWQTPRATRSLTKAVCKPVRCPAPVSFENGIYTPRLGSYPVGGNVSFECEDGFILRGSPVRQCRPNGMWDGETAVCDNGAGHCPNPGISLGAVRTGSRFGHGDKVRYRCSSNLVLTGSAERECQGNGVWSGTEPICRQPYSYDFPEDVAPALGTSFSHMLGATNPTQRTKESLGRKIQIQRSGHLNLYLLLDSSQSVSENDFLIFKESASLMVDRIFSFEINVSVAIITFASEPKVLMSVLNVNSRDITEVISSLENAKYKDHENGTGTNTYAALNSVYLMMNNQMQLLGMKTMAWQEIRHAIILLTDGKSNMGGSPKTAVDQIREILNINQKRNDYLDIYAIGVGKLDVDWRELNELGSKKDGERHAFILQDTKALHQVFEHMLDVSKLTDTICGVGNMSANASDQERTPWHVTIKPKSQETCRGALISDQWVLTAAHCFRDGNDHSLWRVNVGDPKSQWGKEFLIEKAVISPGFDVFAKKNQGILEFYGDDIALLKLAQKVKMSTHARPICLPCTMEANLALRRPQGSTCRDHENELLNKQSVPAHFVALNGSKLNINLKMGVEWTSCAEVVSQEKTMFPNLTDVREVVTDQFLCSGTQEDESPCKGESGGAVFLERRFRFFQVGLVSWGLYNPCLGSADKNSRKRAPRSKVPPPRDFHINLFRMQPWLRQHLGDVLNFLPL

[3] = target: T1, human complement C2; test: cell-based or functional assay; remark: listed apart in the source
[4] = target: T2, cynomolgus monkey C2; test: cell-based or functional assay; remark: listed apart in the source
[5] = target: T2, cynomolgus monkey C2; test: SPR, mAb captured, cyno C2 analyte, pH 7.3
Method: (§1) Surface plasmon resonance (SPR, Biacore) was used for all binding affinity analyses. In brief, goat anti-human IgG was directly immobilised onto the carboxymethyl dextran surface of CM5 sensorchips to approximately 12,000 RU using standard NHS/EDC chemistry at pH 5. The immobilised antibody surface was pre-conditioned with ten injections of polyclonal human IgG (Privigen 60 s) prepared at 1 μg/mL. Ligands (anti-C2 mAbs) were captured at the beginning of each cycle as described below. An adjacent spot or flow cell in which only Polyclonal IgG was capture was used as a reference surface. The goat anti-human IgG Fc antibody surface was regenerate in 100 mM H3PO4, injected for 45 seconds at the end of each cycle. Experiments were performed at 37° C. and the flow rate of each experiment was kept constant at 30 μL/min.
(§2) In addition to human C2, the pH dependent anti-C2 antibodies were also tested for their ability to bind to C2 from other mammalian species using the SPR methods described above in order to identify suitable surrogate species for in vivo testing. The antibodies were tested for binding at neutral pH against C2 from cynomolgus monkeys, mice, dogs, rabbits, rats, pigs, and sheep.

[6] = target: T3, mouse C2 (mouse, UniProt P21180 19-760, limits assumed); test: SPR, mAb captured, mouse C2 analyte, pH 7.3
T3 sequence (looked up): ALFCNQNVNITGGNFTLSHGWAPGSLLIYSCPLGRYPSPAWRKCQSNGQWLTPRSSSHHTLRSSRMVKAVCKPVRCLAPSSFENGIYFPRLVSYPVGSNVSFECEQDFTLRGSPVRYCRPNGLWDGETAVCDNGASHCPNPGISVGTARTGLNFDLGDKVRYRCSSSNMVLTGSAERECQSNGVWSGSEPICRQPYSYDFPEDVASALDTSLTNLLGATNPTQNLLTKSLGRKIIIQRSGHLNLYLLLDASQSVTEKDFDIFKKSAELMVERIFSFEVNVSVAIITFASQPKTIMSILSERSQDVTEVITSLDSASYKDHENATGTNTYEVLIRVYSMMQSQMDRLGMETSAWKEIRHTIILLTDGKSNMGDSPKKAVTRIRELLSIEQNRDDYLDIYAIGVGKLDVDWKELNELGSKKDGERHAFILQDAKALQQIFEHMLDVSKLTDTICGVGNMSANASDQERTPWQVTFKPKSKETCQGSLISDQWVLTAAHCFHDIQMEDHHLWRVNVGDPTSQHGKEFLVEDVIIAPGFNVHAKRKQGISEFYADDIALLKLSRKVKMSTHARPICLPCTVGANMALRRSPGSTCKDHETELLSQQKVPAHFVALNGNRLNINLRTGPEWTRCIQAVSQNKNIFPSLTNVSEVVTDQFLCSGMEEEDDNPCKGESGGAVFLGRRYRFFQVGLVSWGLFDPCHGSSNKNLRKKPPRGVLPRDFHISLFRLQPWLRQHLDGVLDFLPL
Method: as §1, §2

[7] = target: T1, human complement C2; test: SPR, mAb captured, C2 analyte, HBS-EP, pH 7.3
Method: as §1
The pH dependent anti-C2 antibodies and their germlined versions were tested for their affinity to C2 at pH 7.3 (neutral pH) and pH 6.0 (early endosome pH) using the SPR methods described above in HBS-EP buffer.

[8] = target: T1, human complement C2; test: SPR, mAb captured, C2 analyte, MHAs buffer, pH 7.3
Method: as §1
This buffer contains ammonium sulfate instead of sodium chloride.

[9] = target: T1, human complement C2; test: SPR, mAb captured, C2 analyte, HBS-EP, pH 6.0, steady state
[10] = target: T4, human FcRn/β2m (human, UniProt P55899 24-297; P61769 21-119); test: SPR, antibody immobilised, FcRn/β2m analyte, pH 6.0
T4 construct: Soluble FcRn/β2m injected as analyte over immobilised antibody; also called neonatal Fc receptor
T4 sequence (P55899 24-297 limits assumed, chain 1 of 2): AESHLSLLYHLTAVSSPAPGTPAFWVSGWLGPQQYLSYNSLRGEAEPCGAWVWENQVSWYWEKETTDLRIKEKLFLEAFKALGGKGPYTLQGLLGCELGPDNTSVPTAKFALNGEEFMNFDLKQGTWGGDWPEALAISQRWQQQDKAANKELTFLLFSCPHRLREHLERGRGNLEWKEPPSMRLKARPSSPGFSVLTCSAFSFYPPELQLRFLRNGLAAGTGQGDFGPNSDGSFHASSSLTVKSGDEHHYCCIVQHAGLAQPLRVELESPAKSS
T4 sequence (P61769 21-119 limits assumed, chain 2 of 2): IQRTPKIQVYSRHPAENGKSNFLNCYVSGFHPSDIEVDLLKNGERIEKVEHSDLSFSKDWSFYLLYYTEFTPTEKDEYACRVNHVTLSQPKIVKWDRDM
Method: (§3) Anti-C2 mAbs (1 μg/mL at pH 5) were immobilized on a carboxylmethyldextran (CM5) sensorchip surface using standard EDC/NHS chemistry. Human and Cyno FcRn/β2m (40 μM) were prepared in running buffer (10 mM HEPES, 150 mM NaCl, 10 mM MES adjusted to either pH 6 or pH 7.3) and injected on the immobilized anti-C2 surface at concentrations ranging from 0.078 to 40 μM, prepared in two-fold dilutions in running buffer. Association and dissociation phases were monitored for 180 and 600 seconds, respectively. […] Double referenced sensorgrams were fitted to either a 1:1 kinetic model (pH 6), including a term for mass transport limitation or to a 1:1 steady state model (pH 7.3) where responses at the end of the association phase were plotted against respective concentrations.
(§4) Binding to both human and cynomolgus monkey FcRn was tested using the SPR methods described above.

[11] = target: T4, human FcRn/β2m; test: SPR, antibody immobilised, FcRn/β2m analyte, pH 7.3
Method: as §3, §4

[12] = target: T5, human C2a (activated human C2) (human, UniProt P06681 244-752); test: SPR, HBS-EP, pH 7.3, 37 C
T5 construct: the whole entry is named here; also called huC2a
T5 sequence: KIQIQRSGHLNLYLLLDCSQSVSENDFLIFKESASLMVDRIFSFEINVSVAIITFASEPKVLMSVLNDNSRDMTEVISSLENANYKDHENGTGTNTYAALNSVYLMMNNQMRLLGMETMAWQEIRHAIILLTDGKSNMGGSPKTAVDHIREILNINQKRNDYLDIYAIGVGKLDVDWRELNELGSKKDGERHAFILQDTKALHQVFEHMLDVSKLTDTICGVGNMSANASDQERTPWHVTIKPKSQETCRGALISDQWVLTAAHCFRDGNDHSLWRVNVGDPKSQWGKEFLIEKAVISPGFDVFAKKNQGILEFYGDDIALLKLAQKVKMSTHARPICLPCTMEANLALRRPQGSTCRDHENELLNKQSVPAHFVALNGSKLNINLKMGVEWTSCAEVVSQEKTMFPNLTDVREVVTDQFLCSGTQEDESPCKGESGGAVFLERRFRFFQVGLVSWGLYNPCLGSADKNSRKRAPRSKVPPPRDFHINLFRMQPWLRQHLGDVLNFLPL
Method: as §1
(§5) Purified human C2 zymogen and human C2a were tested at concentrations ranging from 1.9 to 500 nM while human C2b was tested at concentrations ranging from 1.9 to 1000 nM. All experiments were performed in HBS-EP buffer supplemented with 0.1% BSA at 37° C. and pH 7.3. Each antibody was tested against human C2 zymogen and human C2a in duplicate and against C2b in quadruplicate. The flow rate was set to 30 μL/min. Each analyte concentration was tested in duplicate.

[13] = target: T6, human C2b (human, UniProt P06681 21-243); test: SPR, HBS-EP, pH 7.3, 37 C
T6 construct: the whole entry is named here
T6 sequence: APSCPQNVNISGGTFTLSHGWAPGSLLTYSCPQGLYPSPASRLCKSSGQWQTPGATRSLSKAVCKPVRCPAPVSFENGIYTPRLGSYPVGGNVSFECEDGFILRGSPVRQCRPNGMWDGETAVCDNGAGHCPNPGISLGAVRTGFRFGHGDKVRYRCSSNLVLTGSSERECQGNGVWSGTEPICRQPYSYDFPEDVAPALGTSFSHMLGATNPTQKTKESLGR
Method: as §1, §5

[14] = target: T7, human complement C2 zymogen (human, UniProt P06681 21-752); test: SPR, human C2 zymogen analyte, HBS-EP, pH 7.3, 37 C
T7 construct: also called huC2; human C2
T7 sequence: T1 sequence
Method: as §1, §5

B1: RF16-203 (antibody, V domains shown)
VH: EVQLLESGGGLVQPGGSLRLSCAASGFTFSRYYMMWVRQAPGKGLEWVSSIGSSGGTTNYADSVKGRFTISRDNSKNTLYLQMNSLRAEDTATYYCAKGGMVLGVVNIWGQGTLVTVSS
VL: QSALTQPPSVSVSPGQTATITCSGDKLGEKYVSWYQQKPGQSPVVVIFQDIKRPSGIPERFSGSNSGNTATLTISGTQAMDEADYYCQTWGTGGIQVFGGGTKLTVLR
notes: Human antibody from a phage display library
IC50, inhibition of human classical complement pathway (Wieslab assay) [1]: 5.4 nM | IC50, inhibition of human lectin complement pathway (Wieslab assay) [1]: 1.29 nM | IC50, inhibition of cynomolgus classical complement pathway (Wieslab assay) [2]: 13.3 nM | IC50, inhibition of cynomolgus lectin complement pathway (Wieslab assay) [2]: 112 nM | IC50, inhibition of human classical pathway (hemolysis assay) [3]: 42 nM | IC50, inhibition of cyno classical pathway (hemolysis assay) [4]: 361 nM | Kd [5]: 2.82 nM | Kd [6]: 153 nM | Kd [7]: 2.5 nM | Kd [8]: 12.6 nM | Kd [9]: 73 nM

B2: RF16-226 M252Y, N286E, N434Y (antibody, human IgG4 S228P, lambda)
heavy: EVQLVQSGAEVKKPGESLKISCKGSGYSFTSYWIGWVRQMPGKGLEWMGIIYPGDSDTRYSPSFQGQVTISADKSISTAYLQWSSLKASDTAMYYCARRFSYSSGWDMWGQGTLVTVSSASTKGPSVFPLAPCSRSTSESTAALGCLVKDYFPEPVTVSWNSGALTSGVHTFPAVLQSSGLYSLSSVVTVPSSSLGTKTYTCNVDHKPSNTKVDKRVESKYGPPCPPCPAPEFLGGPSVFLFPPKPKDTLYISRTPEVTCVVVDVSQEDPEVQFNWYVDGVEVHEAKTKPREEQFNSTYRVVSVLTVLHQDWLNGKEYKCKVSNKGLPSSIEKTISKAKGQPREPQVYTLPPSQEEMTKNQVSLTCLVKGFYPSDIAVEWESNGQPENNYKTTPPVLDSDGSFFLYSRLTVDKSRWQEGNVFSCSVMHEALHYHYTQKSLSLSLGK
light: SYELTQPPSVSVSPGQTARITCSGDALTSKYVAWYQQKSGLAPLLVIYEDTRRPSGIPAKFSGSSSGSVATLTISGAHGDDEADYYCYSTDASGHQRVFGGGTKLTVLSQPKAAPSVTLFPPSSEELQANKATLVCLISDFYPGAVTVAWKADGSPVKAGVETTKPSKQSNNKYAASSYLSLTPEQWKSHRSYSCQVTHEGSTVEKTVAPTECS
Kd [10]: 22 nM | Kd [11]: 3300 nM

B3: RF16-226 M252Y, V308P, N434Y (antibody, human IgG4 S228P, lambda)
heavy: B2 heavy with E285N, V307P
light: B2 light
Kd [10]: 10 nM | Kd [11]: 1200 nM

B4: RF16-226G (antibody, human IgG4 S228P, lambda)
heavy: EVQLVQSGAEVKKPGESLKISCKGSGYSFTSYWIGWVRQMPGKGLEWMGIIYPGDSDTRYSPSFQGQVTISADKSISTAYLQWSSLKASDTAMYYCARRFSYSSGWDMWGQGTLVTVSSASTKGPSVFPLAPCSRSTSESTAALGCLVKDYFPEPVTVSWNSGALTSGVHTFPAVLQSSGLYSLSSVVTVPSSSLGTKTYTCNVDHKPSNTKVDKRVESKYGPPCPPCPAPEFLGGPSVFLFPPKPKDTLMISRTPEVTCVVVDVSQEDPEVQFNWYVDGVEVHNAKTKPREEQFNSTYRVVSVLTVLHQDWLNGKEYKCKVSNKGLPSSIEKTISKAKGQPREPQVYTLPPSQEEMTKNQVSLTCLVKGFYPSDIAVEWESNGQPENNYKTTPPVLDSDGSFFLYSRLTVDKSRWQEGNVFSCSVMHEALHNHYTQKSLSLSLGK
light: SYELTQPPSVSVSPGQTARITCSGDALTSKYVAWYQQKSGQAPVLVIYEDTRRPSGIPERFSGSSSGTMATLTISGAQVEDEADYYCYSTDASGHQRVFGGGTKLTVLGQPKAAPSVTLFPPSSEELQANKATLVCLISDFYPGAVTVAWKADSSPVKAGVETTTPSKQSNNKYAASSYLSLTPEQWKSHRSYSCQVTHEGSTVEKTVAPTECS
binding result [12]: no binding (tested: C2a tested up to 500 nM) | binding result [13]: no binding (tested: C2b tested up to 1000 nM) | Kd [14]: 7 nM

B5: RF16-226G YPY (RF16-226G with the M252Y, V308P and N434Y Fc mutations) (antibody, human IgG4 S228P, lambda)
heavy: B2 heavy with E285N, V307P
light: B4 light
binding result [12]: no binding (tested: C2a tested up to 500 nM) | binding result [13]: no binding (tested: C2b tested up to 1000 nM) | Kd [14]: 8 nM
